We go through two molecules from article PMC3906126 (Biochemistry, 2013).

Assay in all cases: ITC
Assay [1] concerns the target WW2W domain of WWOX (WW2 domain, residues 57–91, with the Y85W substitution) (human, UniProt Q9NZC7 57-91, Y85W).
In assay [2] the target is T1, WW1–WW2 tandem module of WWOX (residues 16–91) (human, UniProt Q9NZC7 16-91).
T1 sequence (looked up): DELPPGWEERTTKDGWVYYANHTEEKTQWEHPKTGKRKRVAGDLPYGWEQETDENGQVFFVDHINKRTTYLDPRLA

Assay [3] deals with T2, WW1 domain of WWOX (residues 16–50) (human, UniProt Q9NZC7 16-50).
T2 chain (looked up): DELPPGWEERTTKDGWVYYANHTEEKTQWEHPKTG

Sequence of WW2W domain of WWOX (WW2 domain, residues 57–91, with the Y85W substitution) (Q9NZC7 57-91 Y85W): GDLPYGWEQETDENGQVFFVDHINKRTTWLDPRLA

On to FNIPPPIYTSRA [ErbB4_PY1 peptide (12-mer spanning the PY1 PPXY motif of the ICD of ErbB4)], for which the Kd in assay [1] was determined as 680 µM; in assay [2], 170 µM; in assay [3], 383 µM. The dH is -4.74 kcal/mol in assay [1], -7.25 kcal/mol in assay [2] and -6.88 kcal/mol in assay [3].
In the case of GHSPPPAYTPMS [ErbB4_PY2 peptide (12-mer spanning the PY2 PPXY motif of the ICD of ErbB4)], the Kd came out at 620 µM in assay [1], 175 µM in assay [2] and 362 µM in assay [3]. For the same molecule, the dH in assay [1] is -8.08 kcal/mol; in assay [2], -4.88 kcal/mol; in assay [3], -3.66 kcal/mol.
